Values belong to the substance of their own block, whether it stands above or below them.
Tests used:
Experiment in all cases: cell-based or functional assay
GAL4/HIF 1-813 (human) = target: GAL4/HIF 1-813 (human)
GAL4/HIF 526-826 (human) = target: GAL4/HIF 526-826 (human)
GAL4/HIF 531-584 (human) = target: GAL4/HIF 531-584 (human)
GAL4/HIF 71-826 (human) = target: GAL4/HIF 71-826 (human)
GAL4/HIF 776-826 (human) = target: GAL4/HIF 776-826 (human)
[1] = target: GFP-HIF-1α (in-frame fusion of green fluorescent protein with full-length HIF-1α) (Aequeora victoria; human) [GFP: P42212]
[2] = target: HIF-1α (wild-type human HIF-1α expressed from pCMV4/HIF-1α) (human) (UniProt Q16665)
GAL4/Arnt 128-603 = GAL4/Arnt 128-603 (UniProt P04386)
GAL4/Arnt 128-774 = GAL4/Arnt 128-774 (UniProt P04386)

Sequence of HIF-1α (wild-type human HIF-1α expressed from pCMV4/HIF-1α) (human) (Q16665 whole entry, the tested form may be a part): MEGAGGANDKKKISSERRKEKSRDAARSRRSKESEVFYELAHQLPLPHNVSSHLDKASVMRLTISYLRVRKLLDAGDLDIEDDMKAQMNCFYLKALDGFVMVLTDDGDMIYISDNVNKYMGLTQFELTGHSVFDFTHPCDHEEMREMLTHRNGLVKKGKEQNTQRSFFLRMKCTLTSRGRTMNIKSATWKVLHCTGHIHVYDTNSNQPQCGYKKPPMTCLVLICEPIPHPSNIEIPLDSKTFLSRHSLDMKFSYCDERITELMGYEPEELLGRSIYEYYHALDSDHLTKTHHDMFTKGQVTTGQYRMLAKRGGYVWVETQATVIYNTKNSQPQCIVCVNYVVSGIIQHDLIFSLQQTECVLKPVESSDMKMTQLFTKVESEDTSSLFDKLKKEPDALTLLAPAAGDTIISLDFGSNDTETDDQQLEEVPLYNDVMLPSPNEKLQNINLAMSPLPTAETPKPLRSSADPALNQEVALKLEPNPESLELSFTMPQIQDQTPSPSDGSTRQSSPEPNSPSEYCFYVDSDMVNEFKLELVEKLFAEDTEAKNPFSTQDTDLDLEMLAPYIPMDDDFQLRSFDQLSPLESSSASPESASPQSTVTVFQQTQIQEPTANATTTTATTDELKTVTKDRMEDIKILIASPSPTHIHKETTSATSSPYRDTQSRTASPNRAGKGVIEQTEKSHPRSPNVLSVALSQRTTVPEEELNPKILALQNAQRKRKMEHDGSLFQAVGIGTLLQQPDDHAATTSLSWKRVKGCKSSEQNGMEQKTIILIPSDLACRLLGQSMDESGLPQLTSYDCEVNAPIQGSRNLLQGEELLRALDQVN

GAL4-responsive reporter gene activity, COS7, hypoxia, overexpression of CBP (GAL4/HIF 1-813 (human)): 14 fold
GAL4-responsive reporter gene activity, COS7, transient expression of CBP (GAL4/HIF 526-826 (human)): 7 to 9 fold
GAL4-responsive reporter gene activity, COS7, hypoxic cells, in the presence of CBP (GAL4/HIF 531-584 (human)): 11 fold
luciferase activity, GAL4-responsive reporter, COS7, hypoxia with CBP against hypoxia without exogenous coactivators (GAL4/HIF 71-826 (human)): 30 fold
GAL4-responsive reporter gene activity, COS7, in the presence of CBP (GAL4/HIF 776-826 (human)): 29 fold
HRE-dependent reporter gene activity, COS7, hypoxia with CBP over the levels at normoxia [1]: 15 fold
HRE-dependent reporter gene activity, COS7, hypoxia, enhancement by coexpressed CBP [1]: 3 fold
pT81/HRE-luc reporter gene activity, COS7 coexpressing HIF-1α and Arnt, hypoxia, against hypoxia without exogenous coactivator [2]: 2 to 3 fold
Substance: CBP (CREB binding protein, full-length mouse CBP expressed from pRc/RSV-mCBP-HA) (from UniProt P45481 1-2441)

GAL4-responsive reporter gene activity, COS7, normoxia (GAL4/Arnt 128-603): 5 fold
GAL4-responsive reporter gene activity, COS7, normoxia, against the GAL4 fusion protein alone (GAL4/Arnt 128-774): 4 fold
Substance: HIF-1α (wild-type human HIF-1α expressed from pCMV4/HIF-1α) (from UniProt Q16665 1-826)

hypoxia-dependent activation of a GAL4-responsive reporter, COS7, Ref-1 coexpressed in the presence of CBP and SRC-1 (GAL4/HIF 531-584 (human)): 12 fold
hypoxia-dependent activation of a GAL4-responsive reporter, COS7, Ref-1 coexpressed in the presence of CBP and SRC-1 (GAL4/HIF 776-826 (human)): 53 fold
Substance: Ref-1 (nuclear redox regulator Ref-1 expressed from pCMV5/Ref-1) (from UniProt P27695 1-318) (enzyme)

pT81/HRE-luc reporter gene activity, COS7, hypoxia over the levels at normoxia [2]: 12 fold
Substance: TIF2 (transcriptional coactivator TIF2) (from UniProt Q15596 1-1464)

Source: patent publication EP1141005B1
